Laboratory results: patent US20260232827A1 (Zymeworks, published 2026)
Where two headings read alike, the source gives them in different places. Values belong to the binder of their own block, whether it stands above or below them.

Tests used:
[1] = molecular target: T1, KLH (Sigma-Aldrich, H8283); assay: NS-ELISA, KLH coated, antibody at 100 nM
T1 construct: Coating protein of the NS-ELISA

[2] = molecular target: T2, human NaPi2b (sodium-dependent phosphate transporter 2B) (human, UniProt O95436 1-690); assay: flow cytometry on H441 cells (endogenous NaPi2b), 24 h at 4 C
T2 construct: Endogenous NaPi2b on the human tumor cell lines IGROV-1, HCC-78, H441 and H1781; also called hNaPi2b; SLC34A2
T2 sequence: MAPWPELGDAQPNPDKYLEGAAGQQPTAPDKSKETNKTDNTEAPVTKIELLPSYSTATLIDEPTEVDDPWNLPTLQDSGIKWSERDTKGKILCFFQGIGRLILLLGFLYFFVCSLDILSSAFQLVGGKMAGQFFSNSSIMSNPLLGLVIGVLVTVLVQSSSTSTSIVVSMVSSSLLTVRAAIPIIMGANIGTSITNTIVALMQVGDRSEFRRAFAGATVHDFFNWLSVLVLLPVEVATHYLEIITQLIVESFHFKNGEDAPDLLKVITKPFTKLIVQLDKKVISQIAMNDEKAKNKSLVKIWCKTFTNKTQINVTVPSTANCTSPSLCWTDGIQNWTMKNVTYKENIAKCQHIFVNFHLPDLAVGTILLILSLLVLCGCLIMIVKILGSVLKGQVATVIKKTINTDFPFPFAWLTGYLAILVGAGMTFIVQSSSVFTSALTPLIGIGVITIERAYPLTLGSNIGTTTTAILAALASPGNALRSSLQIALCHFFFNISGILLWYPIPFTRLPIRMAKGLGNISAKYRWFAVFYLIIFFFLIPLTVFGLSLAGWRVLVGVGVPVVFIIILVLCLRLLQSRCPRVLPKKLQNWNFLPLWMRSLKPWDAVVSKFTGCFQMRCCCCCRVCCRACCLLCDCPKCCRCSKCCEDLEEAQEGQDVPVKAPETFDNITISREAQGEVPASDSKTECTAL

[3] = molecular target: T2, human NaPi2b (sodium-dependent …); assay: flow cytometry on IGROV-1 cells (endogenous NaPi2b), 24 h at 4 C
[4] = molecular target: T3, human FcγR IIIA F159 CD16aF (v5772) (human, UniProt P08637 17-208, limits assumed); assay: SPR (Biacore T200), antibody captured on protein A, FcγR as analyte, single-cycle, steady-state fit
T3 construct: In-house reagent
T3 sequence (P08637 17-208 limits assumed): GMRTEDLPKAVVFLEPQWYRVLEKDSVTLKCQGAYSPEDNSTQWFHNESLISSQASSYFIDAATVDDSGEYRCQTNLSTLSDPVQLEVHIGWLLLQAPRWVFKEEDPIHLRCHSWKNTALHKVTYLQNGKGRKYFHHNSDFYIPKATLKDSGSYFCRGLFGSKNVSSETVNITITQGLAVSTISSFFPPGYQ

[5] = molecular target: T4, human FcγR IIA H131 CD32aH (v5774) (human, UniProt P12318 34-217, limits assumed); assay: as above
T4 construct: In-house reagent
T4 sequence (looked up): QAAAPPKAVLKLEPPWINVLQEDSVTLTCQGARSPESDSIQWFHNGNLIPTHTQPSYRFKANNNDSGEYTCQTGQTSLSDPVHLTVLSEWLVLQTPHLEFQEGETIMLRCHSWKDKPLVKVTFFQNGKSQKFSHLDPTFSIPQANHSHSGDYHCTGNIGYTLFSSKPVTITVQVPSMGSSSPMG

[6] = molecular target: T5, human FcγR IIB Y160 CD32bY (v5777) (human, UniProt P31994 43-217, limits assumed); assay: as above
T5 construct: In-house reagent
T5 sequence (looked up): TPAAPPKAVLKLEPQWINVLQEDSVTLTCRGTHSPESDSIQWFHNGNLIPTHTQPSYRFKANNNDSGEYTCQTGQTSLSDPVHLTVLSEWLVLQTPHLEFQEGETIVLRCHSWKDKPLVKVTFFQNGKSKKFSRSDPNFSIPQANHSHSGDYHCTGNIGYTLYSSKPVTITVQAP

[7] = molecular target: T3, human FcγR IIIA F159 CD16aF (v5772); assay: as above; remark: listed apart in the source
[8] = molecular target: T4, human FcγR IIA H131 CD32aH (v5774); assay: as above; remark: listed apart in the source
[9] = molecular target: T5, human FcγR IIB Y160 CD32bY (v5777); assay: as above; remark: listed apart in the source
[10] = molecular target: T2, human NaPi2b (sodium-dependent …); assay: flow cytometry on HCC-78 cells (endogenous NaPi2b), 24 h at 4 C
[11] = molecular target: T6, human FcγR I CD64 (Sino Biological Inc. 10256-H08H) (human, UniProt P12314 16-288); assay: SPR (Biacore T200), antibody captured on protein A, FcγR as analyte, multicycle, 1:1 fit
T6 construct: Bought reagent
T6 sequence (P12314 16-288 limits assumed): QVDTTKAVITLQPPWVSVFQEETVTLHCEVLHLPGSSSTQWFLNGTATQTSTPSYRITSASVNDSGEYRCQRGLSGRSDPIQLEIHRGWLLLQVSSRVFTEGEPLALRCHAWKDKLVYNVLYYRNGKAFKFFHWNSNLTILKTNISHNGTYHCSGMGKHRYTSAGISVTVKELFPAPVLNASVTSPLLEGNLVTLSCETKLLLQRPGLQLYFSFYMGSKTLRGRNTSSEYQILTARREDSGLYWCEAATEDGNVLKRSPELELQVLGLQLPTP

[12] = molecular target: T6, human FcγR I CD64 (Sino Biological Inc. …); assay: as above; remark: listed apart in the source
Biotinylated human FcRn = molecular target: T7, Biotinylated human FcRn (human, UniProt P55899 24-297; P61769 21-119, limits assumed, biotinylated (site not stated)); assay: SPR (Biacore T200), biotinylated FcRn on neutravidin, antibody as analyte, pH 5.9, steady-state fit
T7 construct: also called Biotinlated human FcRn; human neonatal fragment crystallizable receptor (FcRn)

[13] = molecular target: T8, human sodium-dependent phosphate transporter 2B (NaPi2b) (human, UniProt O95436 1-690); assay: flow cytometry, IGROV-1 cells (endogenous NaPi2b); set-up: unit not given here
T8 construct: UniProt ID is given as 095436 [sic]; also called hNaPi2b; Hu NaPi2b
T8 sequence: T2 sequence

mouse NaPi2b = molecular target: T9, mouse NaPi2b (mouse, UniProt Q9DBP0 1-697); assay: flow cytometry, HEK293-6e cells transfected with mouse NaPi2b; apparent Kd
T9 construct: also called Ms NaPi2b; CL #13476
T9 sequence: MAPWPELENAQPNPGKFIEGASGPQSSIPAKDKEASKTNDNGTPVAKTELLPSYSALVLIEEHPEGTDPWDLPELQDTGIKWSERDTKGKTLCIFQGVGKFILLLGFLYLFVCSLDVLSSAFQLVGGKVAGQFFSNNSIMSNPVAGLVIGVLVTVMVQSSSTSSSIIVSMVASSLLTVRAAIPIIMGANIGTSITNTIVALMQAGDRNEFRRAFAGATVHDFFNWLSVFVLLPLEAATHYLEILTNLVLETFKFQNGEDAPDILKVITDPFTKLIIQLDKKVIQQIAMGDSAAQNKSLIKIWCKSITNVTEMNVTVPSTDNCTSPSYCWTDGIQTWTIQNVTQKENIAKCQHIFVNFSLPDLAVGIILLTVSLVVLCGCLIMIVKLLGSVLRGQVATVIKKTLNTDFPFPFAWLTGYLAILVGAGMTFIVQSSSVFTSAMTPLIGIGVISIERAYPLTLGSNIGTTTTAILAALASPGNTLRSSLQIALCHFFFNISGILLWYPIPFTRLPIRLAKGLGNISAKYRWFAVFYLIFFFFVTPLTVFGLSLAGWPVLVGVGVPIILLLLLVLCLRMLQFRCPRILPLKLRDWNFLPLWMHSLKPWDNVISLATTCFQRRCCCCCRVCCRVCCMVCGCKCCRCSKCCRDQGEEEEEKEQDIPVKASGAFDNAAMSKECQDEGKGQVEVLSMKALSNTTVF

[14] = molecular target: T8, human sodium-dependent phosphate …; assay: flow cytometry, HEK293-6e cells transfected with human NaPi2b; apparent Kd
[15] = molecular target: T10, KLH (Sigma-Aldrich, H8283); assay: non-specific ELISA, KLH coated, antibody 100 nM
T10 construct: Coating of the non-specific ELISA

[16] = molecular target: T8, human sodium-dependent phosphate …; assay: flow cytometry, HEK293-6e cells transfected with human NaPi2b
cynomolgus monkey NaPi2b [17] = molecular target: T11, cynomolgus monkey NaPi2b (cynomolgus monkey, UniProt O95436 1-690 (human entry)); assay: flow cytometry, HEK293-6e cells transfected with cynomolgus NaPi2b
T11 construct: also called Cyno NaPi2b; Cy NaPi2b
T11 chain: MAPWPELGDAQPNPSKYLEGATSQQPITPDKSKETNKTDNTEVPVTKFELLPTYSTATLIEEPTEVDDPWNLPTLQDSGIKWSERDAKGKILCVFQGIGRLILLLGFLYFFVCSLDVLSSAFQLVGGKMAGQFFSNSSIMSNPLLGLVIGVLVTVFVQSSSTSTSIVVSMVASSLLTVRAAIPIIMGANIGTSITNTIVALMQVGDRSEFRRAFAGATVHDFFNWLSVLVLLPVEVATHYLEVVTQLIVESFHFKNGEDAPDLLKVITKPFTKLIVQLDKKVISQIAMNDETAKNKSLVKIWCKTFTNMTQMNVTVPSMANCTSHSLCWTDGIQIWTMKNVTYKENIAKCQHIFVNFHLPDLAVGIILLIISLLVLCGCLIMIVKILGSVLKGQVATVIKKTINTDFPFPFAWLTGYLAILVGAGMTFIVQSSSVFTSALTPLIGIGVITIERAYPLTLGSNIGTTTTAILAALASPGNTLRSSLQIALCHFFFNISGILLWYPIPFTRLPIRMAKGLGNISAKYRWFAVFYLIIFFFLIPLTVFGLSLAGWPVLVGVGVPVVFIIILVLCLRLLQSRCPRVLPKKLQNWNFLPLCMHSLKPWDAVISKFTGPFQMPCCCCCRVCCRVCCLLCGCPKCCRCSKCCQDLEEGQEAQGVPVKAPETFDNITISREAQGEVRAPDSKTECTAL

[18] = molecular target: T8, human sodium-dependent phosphate …; assay: flow cytometry, IGROV-1 cells (endogenous NaPi2b); apparent Kd
cynomolgus monkey NaPi2b [19] = molecular target: T11, cynomolgus monkey NaPi2b; assay: flow cytometry, HEK293-6e cells transfected with cynomolgus NaPi2b; apparent Kd
[20] = molecular target: T8, human sodium-dependent phosphate …; assay: KinExA, monovalent antibody, IGROV-1 cells
[21] = molecular target: T8, human sodium-dependent phosphate …; assay: KinExA, monovalent antibody, IGROV-1 cells (endogenous NaPi2b) as titrant, N-curve analysis

NS-ELISA (Binding score) [1]: 0.97 ratio to buffer well | Bmax (MFI) [2]: 511 MFI | Kd [2]: 0.85 nM | Bmax (MFI) [3]: 10200 MFI | Kd [3]: 0.8 nM | Kd [4]: 1130 nM | Binding percentage [5]: 80% | Kd [5]: 799 nM | Binding percentage [6]: 103% | Kd [6]: 4980 nM | Kd [7]: 1130 nM | Binding percentage [8]: 80% | Kd [8]: 799 nM | Binding percentage [9]: 103% | Kd [9]: 4980 nM | Bmax (MFI) [10]: 7990 MFI | Kd [10]: 1.03 nM | Kd [11]: 0.0585 nM | Binding percentage [12]: 91.2% | Kd [12]: 0.0585 nM | Binding percentage (Biotinylated human FcRn): 28.6%
B1: v38591 (humanized anti-NaPi2b antibody, wild-type Fc) (antibody, human IgG1, kappa)
heavy: not shown
light: DVQMTQSPSSLSASVGDRVTITCRASQDVYSYLNWYQQKPGKAVKLLIYYTSRLQSGVPSRFSGSGSGTDYTLTISSLQPEDFATYYCQQYNIFPWTFGQGTKLEIKRTVAAPSVFIFPPSDEQLKSGTASVVCLLNNFYPREAKVQWKVDNALQSGNSQESVTEQDSKDSTYSLSSTLTLSKADYEKHKVYACEVTHQGLSSPVTKSFNRGEC
notes: Full-size human IgG1/kappa; Identical to v29456 except that the heavy chains include a C-terminal lysine; also called v38591 Wild-type; v38591Wild-type

Bmax [13]: 40900 | Kd (mouse NaPi2b): 10.6 nM | Kd [14]: 5.2 nM | NS-ELISA binding score (signal over buffer well) [15]: 1.37 | Bmax [16]: 2540 | Bmax (cynomolgus monkey NaPi2b [17]): 2010 | Kd [18]: 1.1 nM | Kd (cynomolgus monkey NaPi2b [19]): 3.2 nM
B2: v29456 (H1L2) (antibody, human IgG1, kappa)
heavy: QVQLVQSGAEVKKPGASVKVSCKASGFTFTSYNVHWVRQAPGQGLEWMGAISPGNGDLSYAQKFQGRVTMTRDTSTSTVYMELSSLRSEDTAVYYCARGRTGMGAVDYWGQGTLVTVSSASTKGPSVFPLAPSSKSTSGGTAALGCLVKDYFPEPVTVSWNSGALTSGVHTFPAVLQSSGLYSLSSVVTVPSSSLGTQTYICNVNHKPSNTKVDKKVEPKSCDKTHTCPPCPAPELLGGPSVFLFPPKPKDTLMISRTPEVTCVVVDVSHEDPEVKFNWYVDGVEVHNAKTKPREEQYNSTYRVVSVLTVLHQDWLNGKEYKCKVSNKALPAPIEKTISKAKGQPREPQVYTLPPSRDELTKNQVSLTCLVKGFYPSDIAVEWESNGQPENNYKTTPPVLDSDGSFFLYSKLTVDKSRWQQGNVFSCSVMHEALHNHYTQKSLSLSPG
light: B1 light
notes: Humanized IgG1/kappa; heavy chain ends at G446 (EU); also called humanized antibody variant v29456

fold lower binding affinity compared to chimeric parental antibody construct [20]: ~2 fold | Kd [21]: 0.297 nM
B3: v36123 (monovalent format of humanized antibody variant 29452) (antibody, V domains shown)
VH: QVQLVQSGAEVKKPGASVKVSCKASGFTFTSYNVHWVRQAPGQGLEWMGAISPGNGDLSYAQKFQGRVTMTRDTSTSTVYMELSSLRSEDTAVYYCARGRTGMGAVDYWGQGTLVTVSS
VL: DVQMTQSPSSLSASVGDRVTITCRASQDVYSYLNWYQQKPGKAVKLLIYYTSRLQSGVPSRFSGSGSGTDYTLTISSLQPEDIATYYCQQYNIFPWTFGQGTKLEIK
notes: Monovalent format; rest of the construct not described; also called VH1/VL3
